Measurements: US20240209076A1 (KODIAK SCIENCES, published 2024)

Biological target: human IL-6 (human, UniProt P05231 30-212)
Assay: SPR (Biacore), supernatant antibody on Protein A chip, IL-6 flowed, 37 C
Description: Antibodies were captured on a Protein A chip (GE) by injecting 1:20 cell supernatant dilutions at 10 μL/min for 60 seconds. […] The sensor chip was regenerated by a 60 seconds injection of 10 mM Glycine pH 1.7 at the flow rate of 50 μL/min. […] For this setup, 1 μg/mL of purified antibody was injected over a Protein A chip at 10 μL/min for 25 seconds. […] The sensor chip was regenerated by a 60 seconds injection of 10 mM Glycine pH 1.7 at flow rate of 50 μL/min. Data analysis for supernatant and purified samples were performed using BIAevaluation software (GE). All sensorgrams were double reference subtracted and fit using a 1:1 Langmuir binding model.

Chain of human IL-6 (P05231 30-212 limits assumed): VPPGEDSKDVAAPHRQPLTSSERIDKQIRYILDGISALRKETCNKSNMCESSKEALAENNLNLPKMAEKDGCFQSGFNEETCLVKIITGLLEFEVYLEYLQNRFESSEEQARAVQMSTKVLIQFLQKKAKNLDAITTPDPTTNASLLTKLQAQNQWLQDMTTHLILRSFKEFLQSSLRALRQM

| Binder | Kd | koff | kon |
| --- | --- | --- | --- |
| anti-IL-6 antibody, heavy chain T63G, G66D / light chain M32L, M50D, N52S, M88Q (antibody, human IgG1, V domains shown, Human IgG1) VH: EVQLVESGGGLVQPGGSLRLSCAASGFTFSPFAMSWVRQAPGKGLEWVAKISPGGSWTYYSDGVTDRFTFSLDTSKSTAYLQMNSLRAEDTAVYYCARQLWGYYALDIWGQGTLVTVSS VL: DIQLTQSPSSLSASVGDRVTITCSASISVSYLYWYQQKPGKAPKLLIYDDSSLASGVPSRFSGSGSGTDFTLTISSLQPEDFATYYCQQWSGYPYTFGQGTKVEIK | 0.261 nM | 0.00045 s⁻¹ | 1.73e+06 M⁻¹ s⁻¹ |
| anti-IL-6 antibody, heavy chain T63L, G66D / light chain M32L, M50D, N52S, M88Q (antibody, human IgG1, V domains shown, Human IgG1) VH: EVQLVESGGGLVQPGGSLRLSCAASGFTFSPFAMSWVRQAPGKGLEWVAKISPGGSWTYYSDLVTDRFTFSLDTSKSTAYLQMNSLRAEDTAVYYCARQLWGYYALDIWGQGTLVTVSS VL: DIQLTQSPSSLSASVGDRVTITCSASISVSYLYWYQQKPGKAPKLLIYDDSSLASGVPSRFSGSGSGTDFTLTISSLQPEDFATYYCQQWSGYPYTFGQGTKVEIK | 0.283 nM | 0.000454 s⁻¹ | 1.6e+06 M⁻¹ s⁻¹ |
| anti-IL-6 antibody, heavy chain T63R, G66D / light chain M32L, M50D, N52S, M88Q (antibody, human IgG1, V domains shown, Human IgG1) VH: EVQLVESGGGLVQPGGSLRLSCAASGFTFSPFAMSWVRQAPGKGLEWVAKISPGGSWTYYSDRVTDRFTFSLDTSKSTAYLQMNSLRAEDTAVYYCARQLWGYYALDIWGQGTLVTVSS VL: DIQLTQSPSSLSASVGDRVTITCSASISVSYLYWYQQKPGKAPKLLIYDDSSLASGVPSRFSGSGSGTDFTLTISSLQPEDFATYYCQQWSGYPYTFGQGTKVEIK | 0.273 nM | 0.000526 s⁻¹ | 1.92e+06 M⁻¹ s⁻¹ |
| anti-IL-6 antibody, heavy chain T63H, G66D / light chain M32L, M50D, N52S, M88Q (antibody, human IgG1, V domains shown, Human IgG1) VH: EVQLVESGGGLVQPGGSLRLSCAASGFTFSPFAMSWVRQAPGKGLEWVAKISPGGSWTYYSDHVTDRFTFSLDTSKSTAYLQMNSLRAEDTAVYYCARQLWGYYALDIWGQGTLVTVSS VL: DIQLTQSPSSLSASVGDRVTITCSASISVSYLYWYQQKPGKAPKLLIYDDSSLASGVPSRFSGSGSGTDFTLTISSLQPEDFATYYCQQWSGYPYTFGQGTKVEIK | 0.28 nM | 0.000481 s⁻¹ | 1.72e+06 M⁻¹ s⁻¹ |
| anti-IL-6 antibody, heavy chain T65D, G66D / light chain M32L, M50D, N52S, M88Q (antibody, human IgG1, V domains shown, Human IgG1) VH: EVQLVESGGGLVQPGGSLRLSCAASGFTFSPFAMSWVRQAPGKGLEWVAKISPGGSWTYYSDTVDDRFTFSLDTSKSTAYLQMNSLRAEDTAVYYCARQLWGYYALDIWGQGTLVTVSS VL: DIQLTQSPSSLSASVGDRVTITCSASISVSYLYWYQQKPGKAPKLLIYDDSSLASGVPSRFSGSGSGTDFTLTISSLQPEDFATYYCQQWSGYPYTFGQGTKVEIK | 0.465 nM | 0.00048 s⁻¹ | 1.03e+06 M⁻¹ s⁻¹ |
| anti-IL-6 antibody, heavy chain T65E, G66D / light chain M32L, M50D, N52S, M88Q (antibody, human IgG1, V domains shown, Human IgG1) VH: EVQLVESGGGLVQPGGSLRLSCAASGFTFSPFAMSWVRQAPGKGLEWVAKISPGGSWTYYSDTVEDRFTFSLDTSKSTAYLQMNSLRAEDTAVYYCARQLWGYYALDIWGQGTLVTVSS VL: DIQLTQSPSSLSASVGDRVTITCSASISVSYLYWYQQKPGKAPKLLIYDDSSLASGVPSRFSGSGSGTDFTLTISSLQPEDFATYYCQQWSGYPYTFGQGTKVEIK | 0.279 nM | 0.000474 s⁻¹ | 1.7e+06 M⁻¹ s⁻¹ |
| anti-IL-6 antibody, heavy chain T63V, G66D / light chain M32L, M50D, N52S, M88Q (antibody, human IgG1, V domains shown, Human IgG1) VH: EVQLVESGGGLVQPGGSLRLSCAASGFTFSPFAMSWVRQAPGKGLEWVAKISPGGSWTYYSDVVTDRFTFSLDTSKSTAYLQMNSLRAEDTAVYYCARQLWGYYALDIWGQGTLVTVSS VL: DIQLTQSPSSLSASVGDRVTITCSASISVSYLYWYQQKPGKAPKLLIYDDSSLASGVPSRFSGSGSGTDFTLTISSLQPEDFATYYCQQWSGYPYTFGQGTKVEIK | 0.274 nM | 0.00043 s⁻¹ | 1.57e+06 M⁻¹ s⁻¹ |
| anti-IL-6 antibody, heavy chain T63I, G66D / light chain M32L, M50D, N52S, M88Q (antibody, human IgG1, V domains shown, Human IgG1) VH: EVQLVESGGGLVQPGGSLRLSCAASGFTFSPFAMSWVRQAPGKGLEWVAKISPGGSWTYYSDIVTDRFTFSLDTSKSTAYLQMNSLRAEDTAVYYCARQLWGYYALDIWGQGTLVTVSS VL: DIQLTQSPSSLSASVGDRVTITCSASISVSYLYWYQQKPGKAPKLLIYDDSSLASGVPSRFSGSGSGTDFTLTISSLQPEDFATYYCQQWSGYPYTFGQGTKVEIK | 0.288 nM | 0.000446 s⁻¹ | 1.55e+06 M⁻¹ s⁻¹ |
| anti-IL-6 antibody, heavy chain T63Y, G66D / light chain M32L, M50D, N52S, M88Q (antibody, human IgG1, V domains shown, Human IgG1) VH: EVQLVESGGGLVQPGGSLRLSCAASGFTFSPFAMSWVRQAPGKGLEWVAKISPGGSWTYYSDYVTDRFTFSLDTSKSTAYLQMNSLRAEDTAVYYCARQLWGYYALDIWGQGTLVTVSS VL: DIQLTQSPSSLSASVGDRVTITCSASISVSYLYWYQQKPGKAPKLLIYDDSSLASGVPSRFSGSGSGTDFTLTISSLQPEDFATYYCQQWSGYPYTFGQGTKVEIK | 0.241 nM | 0.000459 s⁻¹ | 1.91e+06 M⁻¹ s⁻¹ |
| anti-IL-6 antibody, heavy chain T63W, G66D / light chain M32L, M50D, N52S, M88Q (antibody, human IgG1, V domains shown, Human IgG1) VH: EVQLVESGGGLVQPGGSLRLSCAASGFTFSPFAMSWVRQAPGKGLEWVAKISPGGSWTYYSDWVTDRFTFSLDTSKSTAYLQMNSLRAEDTAVYYCARQLWGYYALDIWGQGTLVTVSS VL: DIQLTQSPSSLSASVGDRVTITCSASISVSYLYWYQQKPGKAPKLLIYDDSSLASGVPSRFSGSGSGTDFTLTISSLQPEDFATYYCQQWSGYPYTFGQGTKVEIK | 0.286 nM | 0.000449 s⁻¹ | 1.57e+06 M⁻¹ s⁻¹ |
| anti-IL-6 antibody, heavy chain T65F, G66D / light chain M32L, M50D, N52S, M88Q (antibody, human IgG1, V domains shown, Human IgG1) VH: EVQLVESGGGLVQPGGSLRLSCAASGFTFSPFAMSWVRQAPGKGLEWVAKISPGGSWTYYSDTVFDRFTFSLDTSKSTAYLQMNSLRAEDTAVYYCARQLWGYYALDIWGQGTLVTVSS VL: DIQLTQSPSSLSASVGDRVTITCSASISVSYLYWYQQKPGKAPKLLIYDDSSLASGVPSRFSGSGSGTDFTLTISSLQPEDFATYYCQQWSGYPYTFGQGTKVEIK | 0.291 nM | 0.000391 s⁻¹ | 1.34e+06 M⁻¹ s⁻¹ |
| anti-IL-6 antibody, heavy chain T65A, G66D / light chain M32L, M50D, N52S, M88Q (antibody, human IgG1, V domains shown, Human IgG1) VH: EVQLVESGGGLVQPGGSLRLSCAASGFTFSPFAMSWVRQAPGKGLEWVAKISPGGSWTYYSDTVADRFTFSLDTSKSTAYLQMNSLRAEDTAVYYCARQLWGYYALDIWGQGTLVTVSS VL: DIQLTQSPSSLSASVGDRVTITCSASISVSYLYWYQQKPGKAPKLLIYDDSSLASGVPSRFSGSGSGTDFTLTISSLQPEDFATYYCQQWSGYPYTFGQGTKVEIK | 0.239 nM | 0.000542 s⁻¹ | 2.27e+06 M⁻¹ s⁻¹ |
| anti-IL-6 antibody, heavy chain T63S, G66D / light chain M32L, M50D, N52S, M88Q (antibody, human IgG1, V domains shown, Human IgG1) VH: EVQLVESGGGLVQPGGSLRLSCAASGFTFSPFAMSWVRQAPGKGLEWVAKISPGGSWTYYSDSVTDRFTFSLDTSKSTAYLQMNSLRAEDTAVYYCARQLWGYYALDIWGQGTLVTVSS VL: DIQLTQSPSSLSASVGDRVTITCSASISVSYLYWYQQKPGKAPKLLIYDDSSLASGVPSRFSGSGSGTDFTLTISSLQPEDFATYYCQQWSGYPYTFGQGTKVEIK | 0.278 nM | 0.000499 s⁻¹ | 1.8e+06 M⁻¹ s⁻¹ |
| anti-IL-6 antibody, heavy chain T63P, G66D / light chain M32L, M50D, N52S, M88Q (antibody, human IgG1, V domains shown, Human IgG1) VH: EVQLVESGGGLVQPGGSLRLSCAASGFTFSPFAMSWVRQAPGKGLEWVAKISPGGSWTYYSDPVTDRFTFSLDTSKSTAYLQMNSLRAEDTAVYYCARQLWGYYALDIWGQGTLVTVSS VL: DIQLTQSPSSLSASVGDRVTITCSASISVSYLYWYQQKPGKAPKLLIYDDSSLASGVPSRFSGSGSGTDFTLTISSLQPEDFATYYCQQWSGYPYTFGQGTKVEIK | 0.246 nM | 0.000419 s⁻¹ | 1.7e+06 M⁻¹ s⁻¹ |
